In patent US20220125947A1 (published 2022):

Biological target: γδ T cell receptor on human γδ T cells (AG000003021) (human)
Assay: flow cytometry, DRC binding at 37°C on human γδ T cells
Method: (§1) Binding of antibodies to human γδ T cells or SKW cell lines expressing Vγ9/Vδ2, Vγ9/Vδ2 or Vγ5/Vδ2 was carried out by flow cytometry. Briefly, the cells were centrifuged at 300×g for 5 minutes and the pellet was resuspended in 34 ml fresh media (in RPMI+10% FBS). 50 μL of the cells were then plated (44K cells/well) into assay plates. Samples were incubated for one hour at 37° C. in tissue culture (TC) incubator followed by wash steps by adding 100 μl FACS staining buffer. Secondary detention antibodies (A647 conjugated anti-human IgG Fc specific antibody (2 μg/mL) along with AF488 anti mouse CD3, clone OKT3 at 1 ug/mL) were added at 50 μL/well to appropriate wells according to the plate map. After incubating for 60 minutes at 37° C. in the TC incubator, cells were again washed as described above. This is followed by resuspension in 20 μL/well running buffer containing 1:1000 dilution of Sytox blue dead cell stain and the plates were run on iQue Screener.
(§2) Gating and data analysis: Human anti-human Vγ9 antibody (VG9B2 mAb at 10 nM) was used to mark the gating of positive population. All cells were first gated for singlets on SCS-A vs. SCS-H dot plot, live/dead followed by CD3 positive population, and this subset of CD3 positive population was gated for Vγ9 positive binding using positive control mAb. Cells were also assessed for cell binding of control mAbs by RL1 (A647) Geomeans from the live cell population. Advanced metrics were used and normalization metrics were chosen to calculate fold over background wells containing secondary antibody alone (designated as ‘background’ within ForeCyt settings).

| Binder | Max. Activity [fold over background] |
| --- | --- |
| VG9B121 (antibody, human IgG1, kappa, V domains shown, IgG1, kappa) VH: EVQLVESGGGLVKPGGSLRLSCVASGFTFSDYAMDWVRQAPGKGLDWISSISSTSNYIFYADSVKGRFTISRDNAKNSLYLQMNSLRVEDSAVYYCANSYNWNYGGAFDIWGQGTMVTVSS VL: DIQMTQSPGTLSSSPGERATLSCRASQSVSSSYFAWYQQKPGRAPRLLIYGASSRATGIPDRFSGSGSGTDFTLTISRLEPEDFAVYFCQQYGRSPLTFGGGTKVEIKR | 3670 |
| VG9B80 (antibody, human IgG1, kappa, V domains shown, IgG1, kappa) VH: EVQLVQSGGGLVKSGGSLRLSCAASGFTFSTYSMNWVRQAPGKGLEWVSSISSSSSYIFYADSVKGRIIISRDNAKNSLYLQMNSVRADDTAVYYCAKDGELGVFDYWGQGTLVTVSS VL: EIVLTQSPGTLSLSAGERATLSCRASQSISSSYLAWYQQKPGQAPRVLIYGPSGRATGIPDRFRGSGSGTDFTLTISRLEPEDFAVYYCQQFGRSPLTFGGGTKVEIKR | 3480 |
| VG9B54 (antibody, human IgG1, kappa, V domains shown, IgG1, kappa) VH: EVQLVESGGGLVKPGGSLRLSCAASGFAFSSYSLTWVRQAPGKGLEWVSSISSSSSYIFYADSVKGRFTISRDNAKNSLYLQMNSLRAEDTAVYYCATDGELGPFDYWGQGTTVTVSS VL: EIVMTQSPGTLSLSPGERATLSCRASQSVSSSYLAWFQQKPGQAPRRLIYGASSRATGIPDRFSGSGSGTDFTLTISRLEPEDFAVYYCQQYGRSPLTFGGGTKVEIKR | 4290 |
| VG9B104 (antibody, human IgG1, kappa, V domains shown, IgG1, kappa) VH: EVQLVESGGGLVKPGGSLRLSCAASGFTFSVYSMNWVRQAPGKGLEWVSSIGSSSSYIFYADSVKGRFTISRDNAKNSLYLQMNSLRAEDTAVYYCGRDHDYGGLDYWGQGTLVTVSS VL: EIVLTQSPGTLSLSPGERATLSCRASQSVSSSYLAWYQQKPGQAPRLLIYGPSNRATDIPDRFSGTGSGTDFTLTISRLEPEDFAVYYCQQYGRSPLTFGGGTKVEIKR | 3050 |
| VG9B195 (antibody, human IgG1, lambda, V domains shown, IgG1, lambda) VH: EVQLVESGGGLVKPGGSLRLSCAASGFTFSPYTMNWVRQAPGKGLEWVSSISSSSSYMYYADSVKGRFTISRDNAKNSLYLQMNSLRAEDTAVYYCARDGDLVGPTYYFDYWGQGTLVTVSS VL: SYELMQPPSVSVSPGQTASITCSGDKLGDKYACWYQQKPGQSPVLVIYQHNKRPSGIPERFSGSNSGKTATLTISGTQAMDEADYYCQAWDSTTVVFGGGTKLTVLG | 3260 |
| VG9B46 (antibody, human IgG1, kappa, V domains shown, IgG1, kappa) VH: EVQLVESGGGLVKPGGSLRLSCEASGFTFSINSMNWVRQAPGKGLEWVSSISSTSDYIFNADSVKGRFTISRDNAKNSLYLQMNSLRAEDTAVYYCVRDDVFGAFDIWGQGTMVTVSS VL: EIVLTQSPGTLSLSPGERATLSCRTSQSVSRSYLGWYQQKPGQPPRLLIFGSSSRATGIPDRFSGSGSGTDFTLTISRLEPEDFAVYYCQQYSRSPLTFGGGTKVDIKR | 3210 |
| VG9B140 (antibody, human IgG1, kappa, V domains shown, IgG1, kappa) VH: EVQLVESGGGLVKPGGSLRLSCAGSGFTFRSYDMNWVRQAPGKGLEWVSSISTSSGYIYYADSVKGRFTISRDNAKNSLSLQMNSLRAEDTAVFYCARDRGIAVAGDYYYGMDVWGQGTMVTVSS VL: not shown | 3230 |
| VG9B69 (antibody, human IgG1, kappa, V domains shown, IgG1, kappa) VH: EVQLVESGGGLVKPGGSLRLSCAASGFTFSSYDINWVRQAPGKGLEWVSSITSSSYYIYYADSVKGRFTISRDNAKNSLYLQMNSLRAEDTAVYYCARDLGVRGVDYYYYGLDVWGQGTMVTVSS VL: not shown | 3110 |

The next lines start with the values.

| Max. Activity [fold over background] | Binder |
| --- | --- |
| 3040 | VG9B198 (antibody, human IgG1, lambda, V domains shown, IgG1, lambda) VH: QVQLQESGPGLVKPSETLSLTCTVSGDSISSIYWSWIRQSAGKGLEWIGRIYTTDITNYNPSLKSRVTMSADTSKNQLSLKLTSVTAADTAVYYCAKNGYSYGGFNYWGQGTLVTVSS VL: QSVLTQPPSVSGAPGQRVTISCTGSSSNIGAGYDVHWYQRLPGTAPKLLIYGDSYRPSGVPDRFSGSKSGTSASLAITGLQAEDEADYYCQSYDSSLSVVVFGGGTKLTVLG |
| 3030 | VG9B463 (antibody, human IgG1, lambda, V domains shown, IgG1, lambda) VH: EVQLVESGGGLVKPGGSLRLSCSASGFTFSNYDMNWVRQAPGKGLEWVSSISSSSSYIYYADSVKGRFTISRDNAKNSLYLQMNSLRAEDTAVYHCARDVGVTTDYYYYGMDVWGQGTTVTVSS VL: QPVLTQSSSASGTPGQRVTISCSGSSSNIGSNTVNWYQQFPGTAPKLLIYTNTQRPSGVPDRFSGSKSGTLVSLAISGLQSEDEADYYCAAWDDSLNAWVFGGGTKLTVLG |
| 3000 | VG9B469 (antibody, human IgG1, kappa, V domains shown, IgG1, kappa) VH: EVQLVESGGGLVKPGGSLRLSCAASGFTFSHYDMNWVRQAPGKGLEWVSSISSSSSYIFYADSVKGRFTISRDNAKNSLLLQMNSLRAEDTAVYHCARDRGVGDTSDYYSFGLDVWGQGTMVTVSS VL: DIVMTQSPGTLSLSPGERATLSCRASQNVSSTYLAWYQQKPGQAPRLLIYGACSRATGIPDRFSGSGSGTDFTLTISRLEPEDYAVYYCQQYGSSPPYTFGRGTKLEIKR |
| 3120 | VG9B416 (antibody, human IgG1, kappa, IgG1, kappa) heavy: not shown light: EIVLTQSPGTLSLSPGDRATLSCRASQSVASSYLAWYQQKPGQSPRLLIYGASSRATGIPDRFSGSGSGTDFTLTISRLEPEDFAVYYCQQYGSSPPYTFGQGTKLEIKRTVAAPSVFIFPPSDEQLKSGTASVVCLLNNFYPREAKVQWKVDNALQSGNSQESVTEQDSKDSTYSLSSTLTLSKADYEKHKVYACEVTHQGLSSPVTKSFNRGEC |
| 3640 | VG9B429 (antibody, human IgG1, kappa, IgG1, kappa) heavy: not shown light: DIQMTQSPSSVSASVGDRVTITCRASQGINSWLAWYQQKPGNAPKLLIYAASSLQSGVPSRFSGIGSGTDFIFTISSLQPEDFASYYCQQANSFPWTFGQGTRLEIKRTVAAPSVFIFPPSDEQLKSGTASVVCLLNNFYPREAKVQWKVDNALQSGNSQESVTEQDSKDSTYSLSSTLTLSKADYEKHKVYACEVTHQGLSSPVTKSFNRGEC |
| 3300 | VG9B414 (antibody, human IgG1, kappa, IgG1, kappa) heavy: not shown light: EIVMTQSPSSVSASVGDRVTITCRASQGINSWLAWYQQKPGNAPKLLIYAASSLQSGVPSRFSGIGSGTDFIFTISSLQPEDFASYYCQQANSFPWTFGQGTRLEIKRTVAAPSVFIFPPSDEQLKSGTASVVCLLNNFYPREAKVQWKVDNALQSGNSQESVTEQDSKDSTYSLSSTLTLSKADYEKHKVYACEVTHQGLSSPVTKSFNRGEC |

Biological target: T1, γδ T cell receptor on human γδ T cells (human)
T1 construct: also called AG000003021 (γδ T cells)
Assay: flow cytometry, dose-response binding at 37 C on human γδ T cells
Method: as §1, §2

| Binder | Max. Activity [fold over background] |
| --- | --- |
| VG9B73 (antibody, human IgG1, kappa, V domains shown, IgG1, kappa; also called antibody #22) VH: EVQLVQSGGGLVKPGGSLRLSCAASGFTFSNYDMNWVRQAPGKGLEWVSSISSSSSYIYYADSVKGRFTISRDNARNSLFLQMSSLRAEDTAVYYCAREIGVTGTTYYQDYGMDVWGQGTTVTVSS VL: EIVMTQSPGTLSLSPGERATLSCRASQSFSSNYLAWYQQKPGQAPRLLIYGASSRATGIPDRFSGSGSGTDFTLTISRLEPEDFALYYCQQYGSSPPFTFGQGTKVEIKR | 2840 |
| VG9B133 (antibody, human IgG1, kappa, V domains shown, IgG1, kappa; also called antibody #23) VH: EVQLVESGGGLVKPGGSLRLSCAAAGFTFSNYDMNWVRQVPGKGLEWVSSISSSSSYIYYADSVKGRFTISRDNAKNSLYLQMNTLRAEDTAVYYCARDLGITGTTMDYYYGMDVWGQGTMVTVSS VL: not shown | 2840 |
| VG9B98 (antibody, human IgG1, kappa, V domains shown, IgG1, kappa; also called antibody #21) VH: EVQLVQSGGDLVKSGGSLRLSCAASGFTFSSYSMYWVRQAPGKGLEWVSSIGSSSTYIFYADSVKGRFTISRDNAMTSLYLQMNRLGAEDSAVYYCARDGELGPFEYWGQGTLVTVSS VL: EIVLTQSPGTLSLSPGERATLSCRASQSVSTSYLAWFQQKPGQAPRLLIFGTSSRATGIPDRFSGSGSGTDFTLTISRLEPEDFAVYHCLQYGRSPLTFGGGTKVDIKR | 2880 |
